Data reported in paper doi:10.1101/2021.11.02.467024 (bioRxiv, 2021).

Target: the molecule itself
Experiment: cross-linking

B1: IMPDH1 (enzyme)
chain: not shown
In the case of B1, the “stoichiometry N” value is reported as 4.
